Test results as given in patent publication US20150344570A1 (published 2015).
Residue numbers refer to the chain shown, from its start. Names may count otherwise.

T1: FcgRIIaH (human, UniProt P12318 34-217)
T1 construct: extracellular domain; also called FcγRIIa H; FcγRIIa type H; not shown: His tag at the C terminus
T1 sequence (looked up): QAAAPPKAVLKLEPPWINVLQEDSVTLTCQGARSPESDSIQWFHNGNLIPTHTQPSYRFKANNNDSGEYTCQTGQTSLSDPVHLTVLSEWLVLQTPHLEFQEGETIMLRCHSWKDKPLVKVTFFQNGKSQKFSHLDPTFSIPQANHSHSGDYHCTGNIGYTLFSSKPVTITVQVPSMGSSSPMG

T2: FcgRIIaR (human, UniProt P12318 34-217)
T2 construct: extracellular domain; also called FcγRIIa R; FcγRIIa type R; not shown: His tag at the C terminus
T2 sequence (looked up): T1 sequence (looked up) with H134R

T3: FcgRIIb (human, UniProt P31994 43-217)
T3 construct: extracellular domain; also called FcγRIIb; CD32B; not shown: His tag at the C terminus
T3 sequence (looked up): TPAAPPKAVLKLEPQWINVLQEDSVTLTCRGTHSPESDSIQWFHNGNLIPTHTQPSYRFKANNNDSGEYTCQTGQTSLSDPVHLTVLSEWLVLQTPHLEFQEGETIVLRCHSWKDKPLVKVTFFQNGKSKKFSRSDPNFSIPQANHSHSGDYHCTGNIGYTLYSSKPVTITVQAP

T4: FcgRIIb extracellular domain, C-terminal His tag (human, UniProt P31994 43-217)
T4 construct: extracellular domain; Soluble analyte in Biacore; also called FcγRIIb; not shown: His tag at the C terminus
T4 sequence (looked up): T3 sequence (looked up)

T5: FcgRIIa R type extracellular domain, C-terminal His tag (human, UniProt P12318 34-217)
T5 construct: extracellular domain; Soluble analyte in Biacore; also called FcγRIIa R; FcγRIIa(R); not shown: His tag at the C terminus
T5 sequence (looked up): T1 sequence (looked up) with H134R

T6: FcgRIIa H type extracellular domain, C-terminal His tag (human, UniProt P12318 34-217)
T6 construct: extracellular domain; Soluble analyte in Biacore; also called FcγRIIa H; FcγRIIa(H); not shown: His tag at the C terminus
T6 sequence (looked up): T1 sequence (looked up)

B1: H240-Kn033/H240-Hl033/L73-k0 (antibody, human IgG1, kappa)
heavy 1: not shown
heavy 2: not shown
light: DIQMTQSPSSLSASVGDRVTITCRASQDIHKYIAWYQQKPGQAPRLLIQYTSTLQPGVPSRFSGSGSGTDYTFTISSLQPEDIATYYCLQYEQLRTFGGGTKVEIKRTVAAPSVFIFPPSDEQLKSGTASVVCLLNNFYPREAKVQWKVDNALQSGNSQESVTEQDSKDSTYSLSSTLTLSKADYEKHKVYACEVTHQGLSSPVTKSFNRGEC
notes: Anti-epiregulin antibody; native IgG1 with only knobs-into-holes alterations
B2: H240-Kn037/H240-Hl036/L73-k0 (antibody, human IgG1, kappa)
heavy 1: QDQLVQSGAEVKKPGASVKVSCKASGFNIKDTYIQWVRQAPGQGLEWMGRIDPLRKQTKYREKFEGRVTITADTSTNTAYMELSSLRSEDTAVYYCVRSGREFDYWGQGTLVTVSSASTKGPSVFPLAPSSKSTSGGTAALGCLVKDYFPEPVTVSWNSGALTSGVHTFPAVLQSSGLYSLSSVVTVPSSSLGTQTYICNVNHKPSNTKVDKKVEPKSCDKTHTCPPCPAPELLAGPDVFLFPPKPKDTLMISRTPEVTCVVVDVSHEDPEVKFNWYVDGVEVHNAKTKPREEQYNSTYRVVSVLTVLHQDWLNGKEYKCKVSNKALPAPEEKTISKAKGQPREPQVCTLPPSRDELTKNQVSLWCLVKGFYPSDIAVEWESNGQPENNYKTTPPVLDSDGSFFLYSKLTVDKSRWQQGNVFSCSVMHEALHNHYTQKSLSLSP
heavy 2: B2 heavy 1 with C348Y, D355C, W365S, L367A, Y406V
light: B1 light
notes: it says that both H chains have G236A/S239D/I332E
B3: H240-Kn032/H240-Hl032/L73-k0 (antibody, human IgG1, kappa)
heavy 1: B2 heavy 1 with A235G, A329L
heavy 2: B2 heavy 1 with A235G, A329L, C348Y, D355C, W365S, L367A, Y406V
light: B1 light
notes: S239D/A330L/I332E in both H chains
B4: H240-Kn204/H240-Hl211/L73-k0 (antibody, human IgG1, kappa)
heavy 1: B2 heavy 1 with L233Y, A235G, D238S, K289Y, Y295W, E331I
heavy 2: B2 heavy 1 with A235G, A329M, E331I, K333V, C348Y, D355C, W365S, L367A, Y406V
light: B1 light
notes: L234Y/K290Y/Y296W in one H chain, S239D/A330M/K334V in the other
B5: H240-Kn179/H240-Hl089/L73-k0 (antibody, human IgG1, kappa)
heavy 1: B2 heavy 1 with L233Y, L234Y, A235W, D238M, H267D, E293K, S297A, A326D, E331I
heavy 2: QDQLVQSGAEVKKPGASVKVSCKASGFNIKDTYIQWVRQAPGQGLEWMGRIDPLRKQTKYREKFEGRVTITADTSTNTAYMELSSLRSEDTAVYYCVRSGREFDYWGQGTLVTVSSASTKGPSVFPLAPSSKSTSGGTAALGCLVKDYFPEPVTVSWNSGALTSGVHTFPAVLQSSGLYSLSSVVTVPSSSLGTQTYICNVNHKPSNTKVDKKVEPKSCDKTHTCPPCPAPELLTGPSVFLFPPKPKDTLMISRTPEVTCVVVDVSHEEPEVKFNWYVDGVEVHNAKTKPREEQYNSTYRVVSVLTVLHQDWLNGKEYKCKVSNDALPKPIEETISKAKGQPREPQVYTLPPSRCELTKNQVSLSCAVKGFYPSDIAVEWESNGQPENNYKTTPPVLDSDGSFFLVSKLTVDKSRWQQGNVFSCSVMHEALHNHYTQKSLSLSP
light: B1 light
notes: Combination of E294R in the Kn chain and G236T in the Hl chain; also called H240-Kn179/H240-HI089/L73-k0
B6: H240-Kn180/H240-Hl089/L73-k0 (antibody, human IgG1, kappa)
heavy 1: B2 heavy 1 with L233Y, L234Y, A235W, D238M, H267D, E293R, S297A, A326D, E331I
heavy 2: B5 heavy 2
light: B1 light
notes: Combination of E294K in the Kn chain and G236T in the Hl chain; also called H240-Kn180/H240-HI089/L73-k0
B7: H240-Kn193/H240-Hl204/L73-k0 (antibody, human IgG1, kappa)
heavy 1: B2 heavy 1 with L233Y, L234N, A235W, D238M, H267D, E293R, S297A, A326D, E331I
heavy 2: B5 heavy 2 with I331E
light: B1 light
notes: H240-Kn193 is H240-Kn120 with Y235N and E294R; also called H240-Kn193/H240-HI204/L73-k0
B8: H240-Kn192/H240-Hl204/L73-k0 (antibody, human IgG1, kappa)
heavy 1: B2 heavy 1 with L233Y, L234N, A235W, D238M, H267D, E293K, S297A, A326D, E331I
heavy 2: B5 heavy 2 with I331E
light: B1 light
notes: H240-Kn192 is H240-Kn120 with Y235N and E294K; also called H240-Kn192/H240-HI204/L73-k0

biological target: T1, FcgRIIaH; assay: SPR (Biacore); KD of H240-Kn033/H240-Hl033/L73-k0 divided by KD of the variant
Experimental: (§1) Binding of the produced variants to FcgRIa, FcgRIIaR, FcgRIIaH, FcgRIIb, FcgRIIIaF, and FcgRIIIaV was measured according to the method of Reference Example 8.
(§2) Analysis of interaction between objective antibody and the FcγR was carried out using Biacore T100 (GE Healthcare), Biacore T200, Biacore A100, and Biacore 4000. HBS-EP+ (GE Healthcare) was used as the running buffer, and the measurement temperature was set to 25° C. Chips produced by immobilizing the antigen peptide by the amine coupling method to a Series S sensor Chip CM5 (GE Healthcare), chips produced by allowing preliminarily biotinylated antigen peptides to interact with and immobilize onto a Series S Sensor Chip SA (certified) (GE Healthcare), chips produced by immobilizing Protein L (ACTIGEN, BioVision) to Series S Sencor Chip CM5 (GE Healthcare), or chips produced by immobilizing Protein A/G (Thermo Scientific) to Series S Sencor Chip CM5 (GE Healthcare) were used. Antibodies of interest were captured onto these chips, and allowed to interact to each FcγR diluted with running buffer. To regenerate and repeatedly use the chip, the antibodies captured onto the chip were washed off by reacting 10 mM glycine-HCl, pH 1.5.

Row | fold 2aH | Binder
1 | 1 fold | B1
2 | 11.3 fold | B2
3 | 0.8 fold | B3
4 | 0.7 fold | B4

biological target: T2, FcgRIIaR; assay: as above
Experimental: as §1, §2

Row | fold 2aR | Binder
5 | 1 fold | B1
6 | 25.5 fold | B2
7 | 2.2 fold | B3
8 | 1.2 fold | B4

biological target: T3, FcgRIIb; assay: as above
Experimental: as §1, §2

Row | fold 2b | Binder
9 | 1 fold | B1
10 | 8.7 fold | B2
11 | 5.3 fold | B3
12 | 2.5 fold | B4

biological target: T7, FcgRIIIaF (human, UniProt P08637 17-208); assay: as above
T7 construct: extracellular domain; also called FcγRIIIa F; not shown: His tag at the C terminus
T7 sequence (P08637 17-208): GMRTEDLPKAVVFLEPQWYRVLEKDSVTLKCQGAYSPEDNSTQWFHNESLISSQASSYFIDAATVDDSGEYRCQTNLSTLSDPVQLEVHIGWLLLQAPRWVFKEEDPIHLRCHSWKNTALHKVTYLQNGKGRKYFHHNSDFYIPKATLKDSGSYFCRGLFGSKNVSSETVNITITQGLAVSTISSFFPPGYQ
Experimental: as §1, §2

Row | fold 3aF | Binder
13 | 1 fold | B1
14 | 13.8 fold | B2
15 | 31.9 fold | B3
16 | 20.7 fold | B4

biological target: T8, FcgRIIIaV (human, UniProt P08637 17-208); assay: as above
T8 construct: extracellular domain; also called FcγRIIIa V; not shown: His tag at the C terminus
T8 sequence (P08637 17-208 F176V limits assumed): as the sequence (P08637 17-208) above, with F160V counted along it
Experimental: as §1, §2

Row | fold 3aV | Binder
17 | 1 fold | B1
18 | 7.1 fold | B2
19 | 15.5 fold | B3
20 | 6.5 fold | B4

biological target: T4, FcgRIIb extracellular domain, …; assay: SPR (Biacore); KD of H240-Kn120/H240-Hl068/L73-k0 divided by KD of the variant
Experimental: (§3) H240-Kn179/H240-H1089/L73-k0, H240-Kn180/H240-Hl089/L73-k0, H240-Kn192/H240-Hl204/L73-k0, and H240-Kn193/H240-Hl204/L73-k0 were prepared by combining each of H240-Kn192 and H240-Kn193 as an H chain, L73-k0 as the L chain, and H240-Hl089 and H240-Hl204 as the other H chain according to the method described in Reference Example 1. The variants described above were assessed for their binding to FcγR according to the method described in Reference Example 8.
as §2

Row | relative KD | Binder
21 | 0.4 | B5
22 | 0.4 | B6
23 | 0.5 | B7
24 | 0.5 | B8

biological target: T9, FcgRIIIa F type extracellular domain, C-terminal His tag (human, UniProt P08637 17-208); assay: as above
T9 construct: extracellular domain; Soluble analyte in Biacore; also called FcγRIIIa F; not shown: His tag at the C terminus
T9 sequence (P08637 17-208): as the sequence (P08637 17-208) above
Experimental: as §3, §2

Row | relative KD | Binder
25 | 0.1 | B5
26 | 0.1 | B6
27 | 0.2 | B7
28 | 0.2 | B8

biological target: T5, FcgRIIa R type extracellular domain, …; assay: as above
Experimental: as §3, §2

Row | relative KD | Binder
29 | 1.1 | B5
30 | 1.3 | B6
31 | 1.3 | B7
32 | 1.1 | B8

biological target: T6, FcgRIIa H type extracellular domain, …; assay: as above
Experimental: as §3, §2

Row | relative KD | Binder
33 | 0.9 | B5
34 | 1.1 | B6
35 | 1.2 | B7
36 | 1 | B8

biological target: T10, FcgRIIIa V type extracellular domain, C-terminal His tag (human, UniProt P08637 17-208); assay: as above
T10 construct: extracellular domain; Soluble analyte in Biacore; also called FcγRIIIa V; not shown: His tag at the C terminus
T10 sequence (P08637 17-208 F176V): as the sequence (P08637 17-208) above, with F160V counted along it
Experimental: as §3, §2

Row | relative KD | Binder
37 | 0 | B5
38 | 0 | B6
39 | 0.2 | B7
40 | 0.2 | B8
